The values below come from US20210284724A1 (I MAB BIOPHARMA US, published 2021).

Broadly, the EC50 is the concentration giving half of the maximal effect. Lower therefore signals an effect from little substance. The Kd is the free concentration of one partner at which half of the binding sites on the other are occupied at equilibrium, for simple one-to-one binding. What is called koff is the first-order rate constant of dissociation. Low values mean slow dissociation, high ones fast dissociation. The term kon denotes the rate constant with which the complex forms. The IC50 is the concentration at which inhibition is half-maximal. Read a high IC50 as a need for much substance.

Bounds are passed on as bounds.

Experiment [1] addresses T1, human CXCL13 (human, UniProt O43927 23-109).
T1 construct: also called huCXCL13; rhCXCL13
T1 sequence (looked up): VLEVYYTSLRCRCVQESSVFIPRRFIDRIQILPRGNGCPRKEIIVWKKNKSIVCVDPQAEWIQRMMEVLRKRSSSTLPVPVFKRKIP
Kind of experiment: ELISA binding, Fab. In general terms: An ELISA detects its analyte on a solid surface through an enzyme-linked reagent.

Experiment [2] deals with T2, human CXCL13 F20A (human, UniProt O43927 23-109).
T2 construct: mature; 87 residues fits the mature chain
T2 sequence (looked up): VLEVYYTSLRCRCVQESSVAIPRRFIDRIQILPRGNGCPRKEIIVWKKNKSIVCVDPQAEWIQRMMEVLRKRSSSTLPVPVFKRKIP
Kind of experiment: alanine scan, flow cytometry. Here is the method: (§1) Cells were transfected with different WT construct or […] mutant construct which each amino acid was mutant to alanine, totally 87 amino acids. Then, binding of the test Fab to each mutant clone in the alanine scanning library was determined, in duplicate, by high-throughput flow cytometry. For each point, background fluorescence was subtracted from the raw data, which were then normalized to Fab reactivity with WT target protein. For each mutant clone, the mean binding value was plotted as a function of expression (represented by control reactivity). To identify preliminary primary critical clones (red circles), a threshold (dashed lines) of >70% WT binding to control Ab and <20% WT binding to test Fab was applied.
In general terms: In flow cytometry, cells or beads pass a laser one at a time.

For experiment [3], the target named is T1, human CXCL13. Kind of experiment: SPR Biacore, off-rate ranking of Fabs.
The target in experiment [4] is T1, human CXCL13. Briefly: SPR Biacore 8K, Fab over immobilised CXCL13. The protocol: HuCXCL13 binding affinity by Surface Plasmon Resonance. 411A11E9, 415A3D1, 64C10G1, 21H12D9, 329F2E1, 71F4A3 were selected to produce Fab and tested binding affinity. The binding of the antibodies to huCXCL13 was examined by Biacore 8K. 10 mM HEPES, 150 mM NaCl, 3 mM EDTA, 0.05% Tween-20, pH 7.4 served as running buffer and 10 mM glycine-HCl, pH2.0 served as regeneration buffer. CXCL13 protein was immobilized on Sensor Chip CM5 using amine coupling method (immobilization level ˜30RU). The serial concentrations of Fab (0-16 nM) were injected over immobilized CXCL13 at the flow rate of 30 μl/min. The dissociation phases were 600s.
Background: SPR reads the build-up and loss of mass on a sensor chip optically.

Experiment [5] has as its target T1, human CXCL13. Kind of experiment: SPR Biacore 8K, Fab over immobilised CXCL13. A digest of the protocol: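 Surface plasmon resonance: CXCL13 amine-coupled to CM5 chip at ~250 RU, humanized Fabs injected at 0–20 nM, 30 μl/min, in HEPES-buffered saline with EDTA and Tween-20, pH 7.4. Dissociation 600 s; regeneration with glycine-HCl pH 2.0.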
This is another data set of the same source.

Experiment [6] deals with T1, human CXCL13. Briefly: cell-based blocking assay, CXCL13 to CXCR5 cells. A digest of the protocol:
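CHO-K1 cells expressing CXCR5 were plated at 5×10⁴/well overnight at 37° C, fixed with 2% PFA and blocked with 1% BSA in PBST. Serially diluted humanized Fabs were mixed with an equal volume of human CXCL13 at 0.3 μg/ml and pre-incubated for 30 min at room temperature, and 100 μl of each mix was added to the cells for 30 min. After three PBST washes, bound CXCL13 was captured with 3 μg/ml of a human anti-CXCL13 antibody, detected with anti-human Fc-HRP and read at 450 nm. IC50 was derived from the titration.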

Experiment [7] has as its target T2, human CXCL13 F20A. Briefly: alanine scan, flow cytometry on transfected cells. The protocol: as §1
(§2) We draw the crystal structure diagram in the FIG. 8B, and the critical residues for 64C10G1 Fab binding were visualized and shown on this crystal structure.

The next experiment addresses T3, human CXCL13 P22A (human, UniProt O43927 23-109).
T3 construct: mature; 87 residues fits the mature chain
T3 sequence (looked up): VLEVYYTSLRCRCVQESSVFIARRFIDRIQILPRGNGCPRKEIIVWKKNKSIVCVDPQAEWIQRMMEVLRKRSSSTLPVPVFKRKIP
Briefly: alanine scan, flow cytometry on transfected cells. Here is the method: as §1, §2

The next experiment has as its target T4, human CXCL13 R24A (human, UniProt O43927 23-109).
T4 construct: mature; 87 residues fits the mature chain
T4 sequence (looked up): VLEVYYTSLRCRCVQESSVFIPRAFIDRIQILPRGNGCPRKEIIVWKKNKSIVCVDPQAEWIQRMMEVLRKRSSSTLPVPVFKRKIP
Briefly: alanine scan, flow cytometry on transfected cells. The protocol:
as §1, §2

For the next experiment, the target named is T5, human CXCL13 F25A (human, UniProt O43927 23-109).
T5 construct: mature; 87 residues fits the mature chain
T5 sequence (looked up): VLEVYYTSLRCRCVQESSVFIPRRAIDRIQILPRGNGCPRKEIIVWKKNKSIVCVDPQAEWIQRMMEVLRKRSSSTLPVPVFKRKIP
Briefly: alanine scan, flow cytometry on transfected cells. Here is the method: as §1, §2

Experiment [8] has as its target T1, human CXCL13. Briefly: SPR Biacore T200.
Experiment [9] addresses T1, human CXCL13. Kind of experiment: SPR Biacore T200. Here is the method:
In the second approach, mutations were carried out by multiple libraries including 4 different sub libraries, such as saturated mutation libraries by CDR walking for CDR L1, CDR L3, CDR H3 or CDR L2, CDR H1, CDR H2 and saturated mutation libraries by three aa mutated continuously for CDR H3 or CDR L3. After finishing construction of phage sub libraries, antigen CXCL13 screening followed. Antibodies of these sequences were generated, and affinity testing was performed by Biacore T200. To further optimize the antibodies, the lead clones were then back mutated to its humanized counterpart one aa by one aa. Sequences were generated and synthesized for antibodies. Affinity was tested by Biacore T200.
This is another data set of the same source.

Experiment [10] concerns the target T1, human CXCL13. Kind of experiment: SPR Biacore T200. The protocol: To further optimization of 71F4-B, each Mutations in 71F4A3 useful for improving binding (Kon) were added into 71F4-B, the sequences were listed in Table 28. Antibodies according to these sequences were generated and affinity testing was performed by Biacore T200.
The source holds these as a separate data set.

B1: 64C10G1 chimeric Fab (Fab, V domains shown)
VH: EVQLVESGGGLVKPGGSLKLSCAASGFTFSSYAMSWVRQTPEKRLEWVATISDGGSDAYYPDNVKGRFTISRDNAKNNLYLQMSHLKSEDTAMYYCARDYYGSGYEDSPMDYWGQGTSVTVSS
VL: DIQMTQSPSSLSASLGGKVTITCKASQDINKYIAWYQHKPGKGPRLLIHYTSTLQPGIPSRFSGSGSGRDYSFSISNLEPEDFATYYCLQYDNLYTFGGGTKLEIK
notes: Fab; also called 64C10G1 Fab
Turning to B1, the EC50 with human CXCL13 [1] amounted to 1.71 nM. Moreover, the binding result with human CXCL13 F20A [2] is reported as “no binding (tested: <20% WT binding)”. Further, the Kd is 0.814 nM in the experiment with human CXCL13 [3], 0.178 nM in the experiment with human CXCL13 [4] and 0.814 nM in the experiment with human CXCL13 [5]. For the same molecule, the off-rate constant (koff) with human CXCL13 [3] was 0.00218 s⁻¹; with human CXCL13 [4], 0.0005 s⁻¹; with human CXCL13 [5], 0.00218 s⁻¹. Moreover, the kon with human CXCL13 [3] turned out to be 2.68e+06 M⁻¹ s⁻¹; with human CXCL13 [4] it was 2.81e+06 M⁻¹ s⁻¹; with human CXCL13 [5], 2.68e+06 M⁻¹ s⁻¹. The same molecule had an IC50 with human CXCL13 [6] of 7.22 nM. Moreover, the “Binding reactivity (% WT)” value with human CXCL13 F20A [7] was 9.4 % WT; in the experiment with human CXCL13 P22A, 14.8 % WT; in the experiment with human CXCL13 R24A it was -3.3 % WT; with human CXCL13 F25A it was -3.2 % WT.

B2: 71F4-B (antibody, V domains shown)
VH: EVQLVESGGGLVQPGGSLRLSCAASGIDFSRYWMSWVRQAPGKGLEWVAEINPESSTINYAPSLKDRFTISRDNAKNSLYLQMNSLRAEDTAVYYCARQDDYEYYTMDYWGQGTTVTVSS
VL: DIQMTQSPSSLSASVGDRVTITCKVSQDVNTGVAWYQQKPGKAPKLLIYSASYRYTGVPSRFSGSGSGTDFTFTISSLQPEDIATYYCQQYYSTPLTFGGGTKLEIK
notes: also called 71F4A3-B
B2 returned a Kd with human CXCL13 [8] below 1 nM. In the experiment with human CXCL13 [9], this molecule gave a dissociation constant (Kd) of 0.195 nM, a koff of 3.57e-05 s⁻¹ and a kon of 183000 M⁻¹ s⁻¹. Besides, in the experiment with human CXCL13 [10], the Kd was found to be 0.36 nM, the koff was 6.59e-05 s⁻¹ and the kon is 183000 M⁻¹ s⁻¹.
